From patent US5928931A, “Isolation, purification and cloning of retinol dehydratase” (Cornell Research Foundation, Inc., priority 1997, dated 1999)

Assays:
[1] = substrate: Nc1ncnc2c1ncn2[C@@H]1O[C@H](COP(=O)(O)OS(=O)(=O)O)[C@@H](OP(=O)(O)O)[C@H]1O; experiment: purified protein, by the assay type; conditions: other: purified recombinant retinol dehydratase, [3H]-retinol assay, n=3; 24.0 °C
[2] = substrate: CC1=C(/C=C/C(C)=C/C=C/C(C)=C/CO)C(C)(C)CCC1; experiment: Retinol dehydratase assay ([3H]-retinol to [3H]-AR, HPLC radiomatic detection); kinetic studies; assay type: biochemical, Spodoptera frugiperda; conditions: 24.0 °C
Protocol: 20-50 μl aliquots of supernatant/column fractions were incubated with 1 μCi of [^3 H]-retinol and 20 μl of high speed supernatant from sonicated Sf-9 cells in 200 μl assay buffer (20 mM Tris.Cl pH 7.5, 150 mM NaCl, I mM MgCI2) for 15-60 minutes at 24° C. […] Samples were delipidated and [^3 H]-AR production quantified by a liquid scintillation radiomatic detector in series with HPLC gradient elution (20 mM Tris pH 7.4/methanol/chloroform) from a C-18 Reverse Phase 201TP54 column (Vydac, Separations Group, Hesperia, Calif.) as described by McClean et al., Clin. Chem., 28:693-96 (1982) and Derguini et al., Angew.
Kinetic studies were performed with native retinol dehydratase (0.1 μg/assay) and ^3 H-retinol in the presence of constant substrate carrier protein concentrations, either delipidated BSA or recombinant cellular retinol binding protein ("CRBP"). The initial rate of AR synthesis at different substrate concentrations was determined by radiomatic detection of ^3 H-AR after HPLC separation. […] Conversion of ^3 H-retinol was less than 10% of the total at the end point of each assay.
Carrier protein for retinol (delipidated bovine serum albumin or recombinant human CRBP) was added to reduce nonspecific binding and micelle formation.

B1: retinol dehydratase (Spodoptera frugiperda) (protein)
chain: MEKQQDLPFPYEFRELNPEEDKLVKANLGAFPTTYVKLGPKGYMVYRPYLKDAANIYNMPLRPTDVFVASYQRSGTTMTQELVWLIENDLNFEAAKTYMSLRYIYLDGFMIYDPEKQEEYNDILPNPENLDMERYLGLLEYFSRPGSSLLAAVPPTEKRFVKTHLPLSLMPPNMLDTVKMVYLARDPRDVAVSSFHHARLLYLLNKQSNFKDFWEMFHRGLYTLTPYFEHVKEAWAKRHDPNMLFLFYEDYLKDLPGCIARIADFLGKKLSEEQIQRLCEHLNFEKFKNNGAVNMEDYREIGILADGEHFIRKGKAGCWRDYFDEEMTKQAEKWIKDNLKDTDLRYPNMEL
[1]
  Km: 0.26 ± 0.05 µM
[2]; other: BSA carrier, second condition as printed
  Km: 0.05 µM
[2]; other: n=5, free retinol from carrier protein affinities
  Km: 0.001 µM
[2]; other: native retinol dehydratase 0.1 μg/assay, 3H-retinol, carrier BSA or CRBP, free retinol, representative experiment, non-linear regression
  Km: 0.00066 µM
[2]; other: with 2×10^-7 M CRBP-1
  Km: 0.025 µM
[2]; other: with 10^-3 M BSA
  Km: 0.4 µM
